From PMC10057847, “Precision engineering of biological function with large-scale measurements and machine learning” (PLOS ONE, 2023)

System: eYFP under the control of the lactose operator (lacO)
Test: in vivo dose-response curves of LacI variants to IPTG measured with flow cytometry (eYFP output), fit to the Hill equation
Assay type: cell-based, E. coli
Details: Hill fit of cytometry data; for log_ginf: the base-10 logarithm of G∞ (in MEF): saturating output; for log_ginf: the base-10 logarithm of G∞ (in MEF) / log_g0: the base-10 logarithm of G0 (in MEF): value is log10; for n: the Hill coefficient: IPTG dose-response; for log_g0: the base-10 logarithm of G0 (in MEF): basal output
Experimental: Dose-response curves were measured with flow cytometry using E. coli MG1655Δlac transformed with variants of the pVER plasmid, described previously. The plasmid contained different variants of the lacI coding DNA sequence (CDS), as described in the text, and an expression cassette with enhanced yellow fluorescent protein (eYFP) under the control of the lactose operator (lacO). The lacI CDS was verified with Sanger sequencing for each variant.
All cultures were grown in a rich M9 media (3 g/L KH2PO4, 6.78 g/L Na2HPO4, 0.5 g/L NaCl, 1 g/L NH4Cl, 0.1 mmol/L CaCl2, 2 mmol/L MgSO4, 4% glycerol, and 20 g/L casamino acids) supplemented with 50 μg/mL kanamycin.
For flow cytometry measurements, E. coli cultures were grown in a laboratory automation system that included an automated liquid handler (Hamilton, STAR), an automated plate sealer (4titude, a4S), an automated de-sealer (Brooks, XPeel), and two multi-mode plate readers (BioTek, Neo2SM).
Cultures were grown in clear polystyrene 96-well plates with 1.1 mL square wells (4titude, 4ti-0255). The culture volume per well was 0.5 mL. Before incubation, each 96-well growth plate was sealed by the automated plate sealer with a gas permeable membrane (4titude, 4ti-0598). Growth plates were incubated in one of the multi-mode plate readers at 37°C with a 1°C gradient applied from the bottom to the top of the incubation chamber to minimize condensation on the inside of the membrane. The plate readers were set for double-orbital shaking at 807 cycles per minute. Optical density at 600 nm (OD600) was measured every 5 minutes during incubation, with continuous shaking applied between measurements (optical density at 700 nm and YFP fluorescence were also measured every 5 minutes). After incubation, the automated de-sealer was used to remove the gas-permeable membrane from each 96-well plate to enable automated passaging of cultures and sample preparation for flow cytometry measurements.
For each measurement, starter cultures were prepared from glycerol freezer stock in 5 mL of rich M9 media in a 14 mL snap-cap culture tubes. Starter cultures were incubated at 37°C with orbital shaking at 300 rpm for between 4 h and 24 h prior to loading the automation system. The automation system then prepared 96-well growth plates, sealed and de-sealed the growth plates, incubated the growth plates, and prepared flow cytometry sample plates. The automated culture protocol consisted of the following steps: […]

Molecule | log_ginf: the base-10 logarithm of G∞ (in MEF) (posterior mean) [MEF] | n: the Hill coefficient | log_g0: the base-10 logarithm of G0 (in MEF) (posterior mean) [MEF] | EC50 (IPTG as ligand, posterior mean, read-out: log_ec50: the base-10 logarithm of EC50 (converted)) [nM]
pVER-IPTG-WT(Q291L): LacI variant: Q291L (protein, UniProt P03023 1-360, looked up, variant Q291L) Lactose operon repressor: MKPVTLYDVAEYAGVSYQTVSRVVNQASHVSAKTREKVEAAMAELNYIPNRVAQQLAGKQSLLIGVATSSLALHAPSQIVAAIKSRADQLGASVVVSMVERSGVEACKAAVHNLLAQRVSGLIINYPLDDQDAIAVEAACTNVPALFLDVSDQTPINSIIFSHEDGTRLGVEHLVALGHQQIALLAGPLSSVSARLRLAGWHKYLTRNQIQPIAEREGDWSAMSGFQQTMQMLNEGIVPTAMLVANDQMALGAMRAITESGLRVGADISVVGYDDTEDSSCYIPPLTTIKLDFRLLGQTSVDRLLQLSQGQAVKGNQLLPVSLVKRKTTLAPNTQTASPRALADSLMQLARQVSRLESGQ | 4.407 |  |  | 
pVER-IPTG-138: LacI variant: S28G T34M Q60R A81S E100K L148V S221N V271L (protein, UniProt P03023 1-360, looked up, variant S28G T34M Q60R A81S E100K L148V S221N V271L) Lactose operon repressor: MKPVTLYDVAEYAGVSYQTVSRVVNQAGHVSAKMREKVEAAMAELNYIPNRVAQQLAGKRSLLIGVATSSLALHAPSQIVSAIKSRADQLGASVVVSMVKRSGVEACKAAVHNLLAQRVSGLIINYPLDDQDAIAVEAACTNVPALFVDVSDQTPINSIIFSHEDGTRLGVEHLVALGHQQIALLAGPLSSVSARLRLAGWHKYLTRNQIQPIAEREGDWNAMSGFQQTMQMLNEGIVPTAMLVANDQMALGAMRAITESGLRVGADISVLGYDDTEDSSCYIPPLTTIKQDFRLLGQTSVDRLLQLSQGQAVKGNQLLPVSLVKRKTTLAPNTQTASPRALADSLMQLARQVSRLESGQ | 4.407 |  |  | 
pVER-IPTG-081: LacI variant: P285S V301M S308P M347V (protein, UniProt P03023 1-360, looked up, variant P285S V301M S308P M347V) Lactose operon repressor: MKPVTLYDVAEYAGVSYQTVSRVVNQASHVSAKTREKVEAAMAELNYIPNRVAQQLAGKQSLLIGVATSSLALHAPSQIVAAIKSRADQLGASVVVSMVERSGVEACKAAVHNLLAQRVSGLIINYPLDDQDAIAVEAACTNVPALFLDVSDQTPINSIIFSHEDGTRLGVEHLVALGHQQIALLAGPLSSVSARLRLAGWHKYLTRNQIQPIAEREGDWSAMSGFQQTMQMLNEGIVPTAMLVANDQMALGAMRAITESGLRVGADISVVGYDDTEDSSCYIPSLTTIKQDFRLLGQTSMDRLLQLPQGQAVKGNQLLPVSLVKRKTTLAPNTQTASPRALADSLVQLARQVSRLESGQ | 4.489 |  |  | 
pVER-IPTG-206: LacI variant: V95M A337T (protein, UniProt P03023 1-360, looked up, variant V95M A337T) Lactose operon repressor: MKPVTLYDVAEYAGVSYQTVSRVVNQASHVSAKTREKVEAAMAELNYIPNRVAQQLAGKQSLLIGVATSSLALHAPSQIVAAIKSRADQLGASVMVSMVERSGVEACKAAVHNLLAQRVSGLIINYPLDDQDAIAVEAACTNVPALFLDVSDQTPINSIIFSHEDGTRLGVEHLVALGHQQIALLAGPLSSVSARLRLAGWHKYLTRNQIQPIAEREGDWSAMSGFQQTMQMLNEGIVPTAMLVANDQMALGAMRAITESGLRVGADISVVGYDDTEDSSCYIPPLTTIKQDFRLLGQTSVDRLLQLSQGQAVKGNQLLPVSLVKRKTTLAPNTQTTSPRALADSLMQLARQVSRLESGQ |  | 1.594 |  | 
pVER-IPTG-004(V136E): LacI variant: A87P V136E V301M E357G (protein, UniProt P03023 1-360, looked up, variant A87P V136E V301M E357G) Lactose operon repressor: MKPVTLYDVAEYAGVSYQTVSRVVNQASHVSAKTREKVEAAMAELNYIPNRVAQQLAGKQSLLIGVATSSLALHAPSQIVAAIKSRPDQLGASVVVSMVERSGVEACKAAVHNLLAQRVSGLIINYPLDDQDAIAEEAACTNVPALFLDVSDQTPINSIIFSHEDGTRLGVEHLVALGHQQIALLAGPLSSVSARLRLAGWHKYLTRNQIQPIAEREGDWSAMSGFQQTMQMLNEGIVPTAMLVANDQMALGAMRAITESGLRVGADISVVGYDDTEDSSCYIPPLTTIKQDFRLLGQTSMDRLLQLSQGQAVKGNQLLPVSLVKRKTTLAPNTQTASPRALADSLMQLARQVSRLGSGQ | 1.925 | 1.631 | 4.54 | 
pVER-IPTG-WT(S70R/V271M): LacI variant: S70R V271M (protein, UniProt P03023 1-360, looked up, variant S70R V271M) Lactose operon repressor: MKPVTLYDVAEYAGVSYQTVSRVVNQASHVSAKTREKVEAAMAELNYIPNRVAQQLAGKQSLLIGVATSRLALHAPSQIVAAIKSRADQLGASVVVSMVERSGVEACKAAVHNLLAQRVSGLIINYPLDDQDAIAVEAACTNVPALFLDVSDQTPINSIIFSHEDGTRLGVEHLVALGHQQIALLAGPLSSVSARLRLAGWHKYLTRNQIQPIAEREGDWSAMSGFQQTMQMLNEGIVPTAMLVANDQMALGAMRAITESGLRVGADISVMGYDDTEDSSCYIPPLTTIKQDFRLLGQTSVDRLLQLSQGQAVKGNQLLPVSLVKRKTTLAPNTQTASPRALADSLMQLARQVSRLESGQ | 4.268 | 1.459 |  | 
pVER-IPTG-144: LacI variant: V15I F161I A266T K290R M347I (protein, UniProt P03023 1-360, looked up, variant V15I F161I A266T K290R M347I) Lactose operon repressor: MKPVTLYDVAEYAGISYQTVSRVVNQASHVSAKTREKVEAAMAELNYIPNRVAQQLAGKQSLLIGVATSSLALHAPSQIVAAIKSRADQLGASVVVSMVERSGVEACKAAVHNLLAQRVSGLIINYPLDDQDAIAVEAACTNVPALFLDVSDQTPINSIIISHEDGTRLGVEHLVALGHQQIALLAGPLSSVSARLRLAGWHKYLTRNQIQPIAEREGDWSAMSGFQQTMQMLNEGIVPTAMLVANDQMALGAMRAITESGLRVGTDISVVGYDDTEDSSCYIPPLTTIRQDFRLLGQTSVDRLLQLSQGQAVKGNQLLPVSLVKRKTTLAPNTQTASPRALADSLIQLARQVSRLESGQ |  | 1.459 |  | 
pVER-IPTG-084: LacI variant: A92I S269T N333H L346* (protein, UniProt P03023 1-360, looked up, variant A92I S269T N333H L346*) Lactose operon repressor: MKPVTLYDVAEYAGVSYQTVSRVVNQASHVSAKTREKVEAAMAELNYIPNRVAQQLAGKQSLLIGVATSSLALHAPSQIVAAIKSRADQLGISVVVSMVERSGVEACKAAVHNLLAQRVSGLIINYPLDDQDAIAVEAACTNVPALFLDVSDQTPINSIIFSHEDGTRLGVEHLVALGHQQIALLAGPLSSVSARLRLAGWHKYLTRNQIQPIAEREGDWSAMSGFQQTMQMLNEGIVPTAMLVANDQMALGAMRAITESGLRVGADITVVGYDDTEDSSCYIPPLTTIKQDFRLLGQTSVDRLLQLSQGQAVKGNQLLPVSLVKRKTTLAPHTQTASPRALADSMQLARQVSRLESGQ | 4.457 | 1.53 | 3.264 | 1520
pVER-IPTG-008: LacI variant: S61L I237T T258S A266T I289F R351* (protein, UniProt P03023 1-360, looked up, variant S61L I237T T258S A266T I289F R351*) Lactose operon repressor: MKPVTLYDVAEYAGVSYQTVSRVVNQASHVSAKTREKVEAAMAELNYIPNRVAQQLAGKQLLLIGVATSSLALHAPSQIVAAIKSRADQLGASVVVSMVERSGVEACKAAVHNLLAQRVSGLIINYPLDDQDAIAVEAACTNVPALFLDVSDQTPINSIIFSHEDGTRLGVEHLVALGHQQIALLAGPLSSVSARLRLAGWHKYLTRNQIQPIAEREGDWSAMSGFQQTMQMLNEGTVPTAMLVANDQMALGAMRAISESGLRVGTDISVVGYDDTEDSSCYIPPLTTFKQDFRLLGQTSVDRLLQLSQGQAVKGNQLLPVSLVKRKTTLAPNTQTASPRALADSLMQLAQVSRLESGQ | 3.274 | 1.488 | 4.293 | 
